Assay [1] has as its target SlPYL1 E151D (tomato (Solanum lycopersicum)). In words: SEC; Superdex 30 Increase 3.2/300 column as printed; 50 ul with 60, 6 or 0.6 ug protein (48 to 0.48 uM injected); 30 mM Tris-HCl pH 7.5, 150 mM NaCl, 1 mM DTT; apo form, no ABA; refractive index detection.
Assay [2] concerns the target SlPYL1 wild type (tomato dimeric abscisic acid receptor PYL1) (tomato (Solanum lycopersicum)). The assay is described as above.

For orientation: stoichiometry N means the number of molecules, sites or subunits per partner or assembly. SlPYL1 E151D (receptor): the stoichiometry N in assay [1] was 2.
In assay [2], “SlPYL1 wild type (tomato dimeric abscisic acid receptor PYL1)” gave a stoichiometry N of 2.

These data come from paper PMC9207482.
